In FireProtDB (doi:10.1111/j.1432-1033.1988.tb14214.x):

B1: Protein S100-G, P02633 (parent)
chain: MSAKKSPEELKGIFEKYAAKEGDPNQLSKEELKLLLQTEFPSLLKGPSTLDELFEELDKNGDGEVSFEEFQVLVKKISQ

Variants of: B1
Conditions: Bos taurus; pH 7.1; 25 °C; Urea; CD; PIPES 20 mM; reversible: yes; structure 1IGV; whole UniProt chain shown

Row | Variant | ddG of mutation (higher = less stable) [kcal/mol] | denaturant m value [kcal/mol/M] | denaturant midpoint (higher = more stable) [M] | unfolding free energy [kcal/mol]
1 | E21Q | -0.48 | 0.91 | 5.6 | 5.26
2 | Y17F | 1.19 | 0.89 | 4.1 | 3.59
3 | P24G | 1.19 | 0.79 | 4.7 | 3.59
